Reference: the supplement of paper PMC9233669
This sample holds only a part of the variants without activity.

Columns and labels:
[1] = tested on: biotinyl-Met-oxazolone; assay: self-aminoacylation, catalytic enhancement (BMO) (fold over background); higher = more active; k-Seq, kA / k0A0; sequences stand for … in GGGAAUGGAUCCACAUCUACGAAUUC…UUCACUGCAGACUUGACGAAGCUG
Method in brief: (§1)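 Mutagenized RNA pools with a 21-nt variable region (0.43 μM) were reacted with each biotinyl-aminoacyl-oxazolone at 2–1250 μM for 90 minutes at room temperature, in 50 μL HEPES/NaCl/KCl/MgCl2/CaCl2 buffer containing 5% acetonitrile at pH 6.9–7.0. RNA captured on streptavidin was quantified by triplicate qPCR and by Illumina sequencing. The fraction reacted for each sequence was fit to a pseudo-first-order model with bootstrapping, and catalytic enhancement is the median kA divided by the uncatalyzed rate, taken as the low-activity peak of a bimodal Gaussian fit.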

[2] = tested on: biotinyl-Phe-oxazolone; assay: self-aminoacylation, catalytic enhancement (BFO) (fold over background); higher = more active; k-Seq, kA / k0A0; sequences stand for … in GGGAAUGGAUCCACAUCUACGAAUUC…UUCACUGCAGACUUGACGAAGCUG
Method in brief: as §1

[3] = tested on: biotinyl-Trp-oxazolone; assay: self-aminoacylation, catalytic enhancement (BWO) (fold over background); higher = more active; k-Seq, kA / k0A0; sequences stand for … in GGGAAUGGAUCCACAUCUACGAAUUC…UUCACUGCAGACUUGACGAAGCUG
Method in brief: as §1

[4] = tested on: biotinyl-Leu-oxazolone; assay: self-aminoacylation, catalytic enhancement (BLO) (fold over background); higher = more active; k-Seq, kA / k0A0; sequences stand for … in GGGAAUGGAUCCACAUCUACGAAUUC…UUCACUGCAGACUUGACGAAGCUG
Method in brief: as §1

[5] = tested on: biotinyl-Val-oxazolone; assay: self-aminoacylation, catalytic enhancement (BVO) (fold over background); higher = more active; k-Seq, kA / k0A0; sequences stand for … in GGGAAUGGAUCCACAUCUACGAAUUC…UUCACUGCAGACUUGACGAAGCUG
Method in brief: as §1

[6] = tested on: biotinyl-Ile-oxazolone; assay: self-aminoacylation, catalytic enhancement (BIO) (fold over background); higher = more active; k-Seq, kA / k0A0; sequences stand for … in GGGAAUGGAUCCACAUCUACGAAUUC…UUCACUGCAGACUUGACGAAGCUG
Method in brief: as §1

| Sequence | self-aminoacylation [1] | self-aminoacylation [2] | self-aminoacylation [3] | self-aminoacylation [4] | self-aminoacylation [5] | self-aminoacylation [6] |
| --- | --- | --- | --- | --- | --- | --- |
| AAGUUUGCUAGUAGUCGCAAG [Fam3.1 aminoacylation ribozyme variant] | 0.745 | 1.13 | 0.851 | 0.706 | 0.773 | 0.746 |
| CCACACUUCAAUUAAUCGGUC [Fam1B.1 aminoacylation ribozyme variant] | 0.937 | 26.1 | 15.6 | 1.09 | 1.06 | 1.01 |
| AUUCCCCUAGGUCAUUGGGUG [Fam2.2 aminoacylation ribozyme variant] | 10.3 | 92.5 | 11.8 | 15.6 | 7.95 | 7.23 |
| AAGUUUACUAAGAGUCGCAAG [Fam3.1 aminoacylation ribozyme variant] | 1.37 | 1.93 | 1.69 | 1.36 | 1.36 | 1.47 |
| CUACUUCGAACAAGCGGUCUG [Fam1A.1 aminoacylation ribozyme variant] | 0.624 | 0.721 | 0.528 | 0.9 | 0.64 | 0.727 |
| AUGCACAUAGGUCAUCGGGUG [Fam2.2 aminoacylation ribozyme variant] | 10.5 | 73.3 | 10.4 | 10.2 | 6.08 | 6.5 |
| AUUAUCCUGGUCAUUGAGUGA [Fam2.1 aminoacylation ribozyme variant] | 11.7 | 67.5 | 13.9 | 11.7 | 5.05 | 5.33 |
| AGGUUUGCUAAUAGUAGCAAG [Fam3.1 aminoacylation ribozyme variant] | 1.41 | 1.05 | 2.18 | 1.43 | 1.22 | 1.49 |
| CUACUUCUAACAAGCGGUCUG [Fam1A.1 aminoacylation ribozyme variant] | 0.708 | 0.708 | 0.64 | 0.658 | 0.694 | 0.801 |
| AUUCACCUAGGCCGUCGGGUG [Fam2.2 aminoacylation ribozyme variant] | 1.94 | 17.1 | 2.11 | 2.74 | 2.3 | 1.87 |
| AACUUUACUAAUAGUCGCAAG [Fam3.1 aminoacylation ribozyme variant] | 2.23 | 6.76 | 2.92 | 2.26 | 1.86 | 2.07 |
| AAUCACCUAGGUGAUCGGGUG [Fam2.2 aminoacylation ribozyme variant] | 5.43 | 27.7 | 5.05 | 4.84 | 4.03 | 4.6 |
| CUUCUUCAAACAAUCUGUCUG [Fam1A.1 aminoacylation ribozyme variant] | 0.587 | 2.27 | 1.15 | 0.748 | 0.698 | 0.768 |
| AUUACGCUAGUCAUCGAGUGA [Fam2.1 aminoacylation ribozyme variant] | 3.01 | 2.19 | 3.63 | 3.48 | 2.47 | 2.48 |
| AACUUUGCUAAUAGUCCCAAG [Fam3.1 aminoacylation ribozyme variant] | 1.56 | 3.69 | 1.51 | 1.6 | 1.64 | 1.92 |
| AUUCGCCUAAGUCAUCGGGUG [Fam2.2 aminoacylation ribozyme variant] | 12.9 | 117 | 11.7 | 15.6 | 7.95 | 7.83 |
| AUUACCGUGGUCAUCGAGUGC [Fam2.1 aminoacylation ribozyme variant] | 0.762 | 2.57 | 1 | 1.08 | 1.05 | 0.895 |
| CCCCACUUCAAGCGAUCGGUC [Fam1B.1 aminoacylation ribozyme variant] | 2.53 | 5.13 | 4.88 | 1.68 | 2.02 | 1.69 |
| CAACUUCAAUCAAUCGGUCUG [Fam1A.1 aminoacylation ribozyme variant] | 1.36 | 35.7 | 24 | 2.03 | 1.4 | 1.43 |
| AUCCACCUAGGUCAACGGGUG [Fam2.2 aminoacylation ribozyme variant] | 3.17 | 30.3 | 4.49 | 4.15 | 3.34 | 2.4 |
| AUAUACCUAGGUCAUCGGGUG [Fam2.2 aminoacylation ribozyme variant] | 3.97 | 25.9 | 4.16 | 5.38 | 2.74 | 2.65 |

| Sequence | self-aminoacylation [1] | self-aminoacylation [2] | self-aminoacylation [3] | self-aminoacylation [4] | self-aminoacylation [5] | self-aminoacylation [6] |
| --- | --- | --- | --- | --- | --- | --- |
| AGGUUUGCUAAUAGCCGCAAG [Fam3.1 aminoacylation ribozyme variant] | 1.15 | 4.78 | 2.25 | 1.11 | 0.935 | 1.2 |
| AAGUUUGCUCAUAGUUGCAAG [Fam3.1 aminoacylation ribozyme variant] | 0.916 | 1.04 | 0.888 | 0.896 | 0.772 | 0.916 |
| CUACUCCAGACAAUCGGUCUG [Fam1A.1 aminoacylation ribozyme variant] | 1.29 | 0.42 | 0.923 | 1.07 | 1.14 | 1 |
| CUACUUCAAACAAACGAUCUG [Fam1A.1 aminoacylation ribozyme variant] | 0.728 | 0.828 | 0.336 | 0.569 | 0.779 | 0.693 |
| AUUCAGCUCGGUCAUCGGGUG [Fam2.2 aminoacylation ribozyme variant] | 9.53 | 78.7 | 7.34 | 9.01 | 5.43 | 4.88 |
| CGACAUCAAACAAUCGGUCUG [Fam1A.1 aminoacylation ribozyme variant] | 1.05 | 3.7 | 2.71 | 0.934 | 1.19 | 1.11 |
| CUACUUCUAACAAUCGGUGUG [Fam1A.1 aminoacylation ribozyme variant] | 0.91 | 0.728 | 0.569 | 0.907 | 0.687 | 0.844 |
| AUUCACCUAGGUAAUCCGGUG [Fam2.2 aminoacylation ribozyme variant] | 3.77 | 30.4 | 4.8 | 4.57 | 2.39 | 2.33 |
| CCACACUUCAAGCAAUUGGUC [Fam1B.1 aminoacylation ribozyme variant] | 0.625 | 1.43 | 0.858 | 0.594 | 0.707 | 0.702 |
| GUUACCCUUGUCAUCGAGUGA [Fam2.1 aminoacylation ribozyme variant] | 8.39 | 48.1 | 10.7 | 8.14 | 4.44 | 4.41 |
| CUACUUCCAACAAUAGGUCUG [Fam1A.1 aminoacylation ribozyme variant] | 0.562 | 0.659 | 0.417 | 0.578 | 0.688 | 0.744 |
| AUUCACGUAGGUCAGCGGGUG [Fam2.2 aminoacylation ribozyme variant] | 2.52 | 16.1 | 2.71 | 3.04 | 2.48 | 2.48 |
| AUUCACCUAGGUUAGCGGGUG [Fam2.2 aminoacylation ribozyme variant] | 2.98 | 19.7 | 3.43 | 2.9 | 2.22 | 2.55 |
| AUUGACCUAUGUCAUCGGGUG [Fam2.2 aminoacylation ribozyme variant] | 5.68 | 28.4 | 5.17 | 7.74 | 3.64 | 3.81 |
| CCACAUUUCAAGGAAUCGGUC [Fam1B.1 aminoacylation ribozyme variant] | 1.34 | 1.67 | 1.28 | 1.49 | 1.31 | 1.52 |
| AUUACCCUGGCCAUCGAGUUA [Fam2.1 aminoacylation ribozyme variant] | 1.26 | 0.675 | 0.729 | 1.28 | 1.12 | 1.38 |
| CUACUUCAAAUAAUCGGCCUG [Fam1A.1 aminoacylation ribozyme variant] | 0.902 | 14.5 | 12 | 1.36 | 0.985 | 1.11 |
| GUUACCCUGGUCAUCGAGAGA [Fam2.1 aminoacylation ribozyme variant] | 2.96 | 2.82 | 3.07 | 1.9 | 1.74 | 1.32 |
| AUCCACCUAGGUCACCGGGUG [Fam2.2 aminoacylation ribozyme variant] | 5.52 | 40.4 | 6.67 | 6.1 | 4.47 | 4.14 |
| CCACACUUCUGGCAAUCGGUC [Fam1B.1 aminoacylation ribozyme variant] | 1.26 | 1.18 | 0.873 | 1.54 | 1.49 | 1.23 |
| CCACACUUCAAGCAACCCGUC [Fam1B.1 aminoacylation ribozyme variant] | 0.779 | 0.819 | 0.843 | 0.763 | 1.17 | 1.14 |
